First the molecules themselves.
B1: Steroid Delta-isomerase, P07445 (parent)
chain: MNLPTAQEVQGLMARYIELVDVGDIEAIVQMYADDATVEDPFGQPPIHGREQIAAFYRQGLGGGKVRACLTGPVRASHNGCGAMPFRVEMVWNGQPCALDVIDVMRFDEHGRIQTMQAYWSEVNLSVREPQ

In this data set the parent is B1. The following applies: Pseudomonas putida; pH 7; 25 °C; Urea; CD; potassium phosphate 20 mM; reversible: yes; structure 1OH0; whole UniProt chain shown.

The source of these data is FireProtDB (doi:10.1021/bi015547k).

With MNLPTAQEVQGLMARSIELVDVGDIEAIVQMYADDATVEDPFGQPPIHGREQIAAFYRQGLGGGKVRACLTGPVRASHNGCGAMPFRVEMVWNGQPCALDVIDVMRFDEHGRIQTMQAYWSEVNLSVREPQ [Y16S], the denaturant m value turned out to be 2.93 kcal/mol/M, the “denaturant midpoint (higher = more stable)” value (from here on “denaturant midpoint”) was determined as 1.99 M and the unfolding free energy came out at 12.4 kcal/mol.

With MNLPTAQEVQGLMARYIELVDVGDIEAIVQMYADDATVEDPFGQPPIHGREQIAAFSRQGLGGGKVRACLTGPVRASHNGCGAMPFRVEMVWNGQPCALDVIDVMRFDEHGRIQTMQAYWSEVNLSVREPQ [Y57S], the “ddG of mutation (higher = less stable)” value amounted to 9.5 kcal/mol, the denaturant m value turned out to be 3.43 kcal/mol/M, the “denaturant midpoint” value is 2.41 M and the unfolding free energy is 14.8 kcal/mol.

In the case of MNLPTAQEVQGLMARYIELVDVGDIEAIVQMSADDATVEDPFGQPPIHGREQIAAFYRQGLGGGKVRACLTGPVRASHNGCGAMPFRVEMVWNGQPCALDVIDVMRFDEHGRIQTMQAYWSEVNLSVREPQ [Y32S], the denaturant m value worked out at 2.55 kcal/mol/M, the “denaturant midpoint” value is 1.56 M and the unfolding free energy came to 10.6 kcal/mol.
